These results are taken from patent US20250218531A1 (ABSCI, published 2025).

In test [1] the target is T1, human epidermal growth factor receptor 2 (HER2) extracellular domain (human, UniProt P04626 23-629). The test can be described thus: SPR, table row 21.
Test [2] addresses T1, human epidermal growth factor receptor …. Briefly: SPR, table row 27. A general note: In SPR one partner is held on a chip, and binding of the other changes the refractive index at the surface.
Test [3] shares this target. The test can be described thus: SPR (Carterra LSA), Fab captured, HER2 ECD as analyte.
Test [4] shares this target. Briefly: SPR, table row 4.
For test [5] the target is unchanged. Briefly: SPR, table row 18.
For test [6] the target is unchanged. The test can be described thus: SPR, table row 8.
For test [7] the target is unchanged. Briefly: SPR, table row 5.
Test [8] shares this target. Briefly: SPR, table row 10.
The target is the same in test [9]. Briefly: SPR.
Test [10] shares this target. Briefly: SPR, table row 2.
Test [11] has the same target.
For test [12] the target is unchanged. Briefly: SPR, table row 26.
For test [13] the target is unchanged. The test can be described thus: SPR, table row 3.
Test [14] shares this target. The test can be described thus: SPR, table row 1.
Test [15] shares this target. Briefly: SPR, table row 29.
The target is the same in test [16]. Briefly: SPR, table row 9.

Where two headings read alike, the source gives them in different places.

B1: Trast_Her2_57 (Fab, V domains shown)
VH: EVQLVESGGGLVQPGGSLRLSCAASGFNIKDTYIHWVRQAPGKGLEWVARIYPTNGYTRYADSVKGRFTISADTSKNTAYLQMNSLRAEDTAVYYCAKPYYYFSDGLEYWGQGTLVTVSS
VL: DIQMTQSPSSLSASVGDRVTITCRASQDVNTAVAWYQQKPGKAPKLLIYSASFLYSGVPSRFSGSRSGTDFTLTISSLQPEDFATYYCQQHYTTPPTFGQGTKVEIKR
notes: also called HCDR3 AKPYYYFSDGLEY
As usually defined, the Kd is the constant that tells how readily two partners part at equilibrium. Low readings indicate higher affinity, high ones lower affinity. The koff is a measure of how fast the partners let go of each other. A word on the kon: it is a measure of how fast the partners come together. For B1, in test [1], the dissociation constant Kd stood at 15.6 nM, the koff stood at 0.000321 s⁻¹ and the kon was 20600 M⁻¹ s⁻¹. In [2], this molecule yielded a Kd of 34.8 nM, a koff of 0.000581 s⁻¹ and a kon of 16700 M⁻¹ s⁻¹.

B2: De novo trastuzumab HCDR3 variant ANDIYIQGYDLNR (Fab, V domains shown)
VH: EVQLVESGGGLVQPGGSLRLSCAASGFNIKDTYIHWVRQAPGKGLEWVARIYPTNGYTRYADSVKGRFTISADTSKNTAYLQMNSLRAEDTAVYYCANDIYIQGYDLNRWGQGTLVTVSS
VL: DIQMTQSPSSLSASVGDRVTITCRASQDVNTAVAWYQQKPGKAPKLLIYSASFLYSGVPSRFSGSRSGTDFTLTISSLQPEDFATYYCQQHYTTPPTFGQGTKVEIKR
notes: Fab format
Regarding B2, the “log10(KD)” value in test [3] was -8.4 log10(M).

B3: Trast_Her2_131 (Fab, V domains shown)
VH: EVQLVESGGGLVQPGGSLRLSCAASGFNIKDTYIHWVRQAPGKGLEWVARIYPTNGYTRYADSVKGRFTISADTSKNTAYLQMNSLRAEDTAVYYCARDGRYGYQDYWGQGTLVTVSS
VL: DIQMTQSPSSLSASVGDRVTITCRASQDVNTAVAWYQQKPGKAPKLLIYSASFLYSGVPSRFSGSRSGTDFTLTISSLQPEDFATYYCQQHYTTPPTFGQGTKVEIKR
notes: also called HCDR3 ARDGRYGYQDY
On to B3, for which, in test [4], binding was characterised by a dissociation constant (Kd) of 1 nM, the koff was 1e-05 s⁻¹ and the kon was 9990 M⁻¹ s⁻¹. Moreover, in [5], binding was characterised by a dissociation constant (Kd) of 8.06 nM, the koff came out at 0.000202 s⁻¹ and the on-rate constant (kon) turned out to be 25000 M⁻¹ s⁻¹.

B4: Trast_Her2_54 (Fab, V domains shown)
VH: EVQLVESGGGLVQPGGSLRLSCAASGFNIKDTYIHWVRQAPGKGLEWVARIYPTNGYTRYADSVKGRFTISADTSKNTAYLQMNSLRAEDTAVYYCAKNFLIGTRYWWGQGTLVTVSS
VL: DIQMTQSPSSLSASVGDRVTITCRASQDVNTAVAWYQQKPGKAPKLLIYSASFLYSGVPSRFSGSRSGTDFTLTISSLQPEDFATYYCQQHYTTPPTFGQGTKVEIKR
notes: also called HCDR3 AKNFLIGTRYW
In test [6], B4 had a Kd of 2.68 nM, a koff of 4.11e-05 s⁻¹ and a kon of 15400 M⁻¹ s⁻¹.

B5: Trast_Her2_51 (Fab, V domains shown)
VH: EVQLVESGGGLVQPGGSLRLSCAASGFNIKDTYIHWVRQAPGKGLEWVARIYPTNGYTRYADSVKGRFTISADTSKNTAYLQMNSLRAEDTAVYYCAKHYDGWILAYWGQGTLVTVSS
VL: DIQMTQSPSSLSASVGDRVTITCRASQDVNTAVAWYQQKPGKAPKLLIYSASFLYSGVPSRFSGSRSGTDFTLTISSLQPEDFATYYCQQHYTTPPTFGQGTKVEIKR
notes: also called HCDR3 AKHYDGWILAY
In test [7], B5 displayed a Kd of 1.03 nM, an off-rate (koff) of 1e-05 s⁻¹ and an on-rate constant (kon) of 9680 M⁻¹ s⁻¹. In [8], the Kd is 2.89 nM, the koff amounted to 4.35e-05 s⁻¹ and the kon was found to be 15100 M⁻¹ s⁻¹.

B6: AI Design 1 (multi-step AI designed trastuzumab HCDR1/2/3 variant) (Fab, V domains shown)
VH: EVQLVESGGGLVQPGGSLRLSCAASGFNVSSSYIHWVRQAPGKGLEWVARIYPENGSTRYADSVKGRFTISADTSKNTAYLQMNSLRAEDTAVYYCSRYSYYGGYAFDYWGQGTLVTVSS
VL: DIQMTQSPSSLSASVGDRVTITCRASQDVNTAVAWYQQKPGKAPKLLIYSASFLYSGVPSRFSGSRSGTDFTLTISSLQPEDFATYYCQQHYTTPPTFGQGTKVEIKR
notes: Fab format; also called GFNVSSSY / IYPENGST / SRYSYYGGYAFDY
In test [9], B6 had a Kd of 225 nM.

B7: De novo trastuzumab HCDR3 variant ARYDYGYYIYVS (Fab, V domains shown)
VH: EVQLVESGGGLVQPGGSLRLSCAASGFNIKDTYIHWVRQAPGKGLEWVARIYPTNGYTRYADSVKGRFTISADTSKNTAYLQMNSLRAEDTAVYYCARYDYGYYIYVSWGQGTLVTVSS
VL: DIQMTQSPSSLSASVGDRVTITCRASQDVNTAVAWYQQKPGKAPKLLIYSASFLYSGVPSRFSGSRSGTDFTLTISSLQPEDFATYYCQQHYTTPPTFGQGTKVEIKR
notes: Fab format
In the case of B7, in test [3], the “log10(KD)” value was -8.02 log10(M).

B8: Trast_Her2_12 (Fab, V domains shown)
VH: EVQLVESGGGLVQPGGSLRLSCAASGFNIKDTYIHWVRQAPGKGLEWVARIYPTNGYTRYADSVKGRFTISADTSKNTAYLQMNSLRAEDTAVYYCAGHWTYRFADTLWGQGTLVTVSS
VL: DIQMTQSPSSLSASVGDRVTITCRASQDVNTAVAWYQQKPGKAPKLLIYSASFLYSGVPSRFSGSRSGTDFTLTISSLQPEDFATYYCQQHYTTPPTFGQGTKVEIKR
notes: also called HCDR3 AGHWTYRFADTL
With B8, in [10], the Kd was at most 0.792 nM, the koff is at most 1e-05 s⁻¹ and the kon turned out to be 12600 M⁻¹ s⁻¹.

B9: Trast_Her2_70 (Fab, V domains shown)
VH: EVQLVESGGGLVQPGGSLRLSCAASGFNIKDTYIHWVRQAPGKGLEWVARIYPTNGYTRYADSVKGRFTISADTSKNTAYLQMNSLRAEDTAVYYCAKYDYYIYDFDIWGQGTLVTVSS
VL: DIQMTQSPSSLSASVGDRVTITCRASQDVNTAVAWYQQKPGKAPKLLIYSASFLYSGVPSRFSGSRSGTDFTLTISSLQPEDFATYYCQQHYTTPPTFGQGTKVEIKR
notes: also called HCDR3 AKYDYYIYDFDI
For B9, in [11], the Kd was found to be 19.4 nM, the koff is 0.000369 s⁻¹ and the kon stood at 19000 M⁻¹ s⁻¹. In test [12], this molecule had a Kd of 30.5 nM, a koff of 0.000284 s⁻¹ and a kon of 9320 M⁻¹ s⁻¹.

B10: Trast_Her2_52 (Fab, V domains shown)
VH: EVQLVESGGGLVQPGGSLRLSCAASGFNIKDTYIHWVRQAPGKGLEWVARIYPTNGYTRYADSVKGRFTISADTSKNTAYLQMNSLRAEDTAVYYCAKISRYYYGMDYWGQGTLVTVSS
VL: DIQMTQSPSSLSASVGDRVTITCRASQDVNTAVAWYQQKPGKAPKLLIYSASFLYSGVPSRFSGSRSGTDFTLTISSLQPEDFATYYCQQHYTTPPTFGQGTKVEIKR
notes: also called HCDR3 AKISRYYYGMDY
In test [11], B10 displayed a Kd of 9.01 nM, a koff of 0.000127 s⁻¹ and a kon of 14100 M⁻¹ s⁻¹. In test [13], this molecule yielded a Kd of 0.929 nM, a koff of 1e-05 s⁻¹ and an on-rate (kon) of 10800 M⁻¹ s⁻¹.

B11: Trast_Her2_49 (Fab, V domains shown)
VH: EVQLVESGGGLVQPGGSLRLSCAASGFNIKDTYIHWVRQAPGKGLEWVARIYPTNGYTRYADSVKGRFTISADTSKNTAYLQMNSLRAEDTAVYYCAKGTSSWYNFGVWGQGTLVTVSS
VL: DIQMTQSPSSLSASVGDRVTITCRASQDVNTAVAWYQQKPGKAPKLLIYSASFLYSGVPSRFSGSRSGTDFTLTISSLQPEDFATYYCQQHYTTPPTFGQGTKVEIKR
notes: also called HCDR3 AKGTSSWYNFGV
In the case of B11, in [14], the Kd was at most 0.517 nM, the koff was at most 1e-05 s⁻¹ and the kon was 19300 M⁻¹ s⁻¹.

B12: Trast_Her2_58 (Fab, V domains shown)
VH: EVQLVESGGGLVQPGGSLRLSCAASGFNIKDTYIHWVRQAPGKGLEWVARIYPTNGYTRYADSVKGRFTISADTSKNTAYLQMNSLRAEDTAVYYCAKRDFGRDWFAYWGQGTLVTVSS
VL: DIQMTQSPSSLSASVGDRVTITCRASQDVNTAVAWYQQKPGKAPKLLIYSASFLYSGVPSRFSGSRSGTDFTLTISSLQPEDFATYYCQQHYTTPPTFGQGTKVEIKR
notes: also called HCDR3 AKRDFGRDWFAY
In test [15], B12 displayed a Kd of 38.8 nM, a koff of 0.000582 s⁻¹ and a kon of 15000 M⁻¹ s⁻¹.

B13: De novo trastuzumab HCDR3 variant ARYYYGFYYFDY (Fab, V domains shown)
VH: EVQLVESGGGLVQPGGSLRLSCAASGFNIKDTYIHWVRQAPGKGLEWVARIYPTNGYTRYADSVKGRFTISADTSKNTAYLQMNSLRAEDTAVYYCARYYYGFYYFDYWGQGTLVTVSS
VL: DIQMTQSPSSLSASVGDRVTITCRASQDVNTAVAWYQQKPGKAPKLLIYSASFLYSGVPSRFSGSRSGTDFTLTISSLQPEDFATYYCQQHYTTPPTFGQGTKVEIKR
notes: Fab format
In the case of B13, in test [3], the “log10(KD)” value is -8.92 log10(M).

B14: AI Design 3 (multi-step AI designed trastuzumab HCDR1/2/3 variant) (Fab, V domains shown)
VH: EVQLVESGGGLVQPGGSLRLSCAASGFNIKDYYIHWVRQAPGKGLEWVARIYPSRGYTRYADSVKGRFTISADTSKNTAYLQMNSLRAEDTAVYYCARHGSEGRYTMDVWGQGTLVTVSS
VL: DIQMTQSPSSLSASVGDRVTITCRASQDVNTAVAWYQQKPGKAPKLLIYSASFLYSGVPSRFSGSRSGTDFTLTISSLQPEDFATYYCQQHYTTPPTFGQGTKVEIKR
notes: Fab format; also called GFNIKDYY / IYPSRGYT / ARHGSEGRYTMDV
As to B14, the Kd in test [9] came to 192 nM.

B15: De novo trastuzumab HCDR3 variant TRYFFNGWYYFDV (Fab, V domains shown)
VH: EVQLVESGGGLVQPGGSLRLSCAASGFNIKDTYIHWVRQAPGKGLEWVARIYPTNGYTRYADSVKGRFTISADTSKNTAYLQMNSLRAEDTAVYYCTRYFFNGWYYFDVWGQGTLVTVSS
VL: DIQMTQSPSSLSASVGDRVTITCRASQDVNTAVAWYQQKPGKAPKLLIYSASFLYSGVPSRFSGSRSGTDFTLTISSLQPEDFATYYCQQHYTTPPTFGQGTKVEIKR
notes: Fab format
For B15, the “log10(KD)” value in test [3] is -9.03 log10(M).

B16: AI Design 6 (multi-step AI designed trastuzumab variant, native HCDR1) (Fab, V domains shown)
VH: EVQLVESGGGLVQPGGSLRLSCAASGFNIKDTYIHWVRQAPGKGLEWVARIDPADGYTRYADSVKGRFTISADTSKNTAYLQMNSLRAEDTAVYYCAREGGYGYYAMDYWGQGTLVTVSS
VL: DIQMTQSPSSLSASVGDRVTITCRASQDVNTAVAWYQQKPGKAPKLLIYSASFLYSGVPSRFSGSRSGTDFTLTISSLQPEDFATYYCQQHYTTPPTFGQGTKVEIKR
notes: Fab format; also called GFNIKDTY / IDPADGYT / AREGGYGYYAMDY
Regarding B16, the Kd in test [9] was found to be 160 nM.

B17: AI Design 8 (multi-step AI designed trastuzumab variant, native HCDR1) (Fab, V domains shown)
VH: EVQLVESGGGLVQPGGSLRLSCAASGFNIKDTYIHWVRQAPGKGLEWVARIYPSNGYTRYADSVKGRFTISADTSKNTAYLQMNSLRAEDTAVYYCARYGGSYAYYFYYWGQGTLVTVSS
VL: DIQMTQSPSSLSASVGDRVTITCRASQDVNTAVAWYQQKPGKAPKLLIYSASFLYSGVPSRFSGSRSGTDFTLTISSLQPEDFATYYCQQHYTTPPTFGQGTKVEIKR
notes: Fab format; also called GFNIKDTY / IYPSNGYT / ARYGGSYAYYFYY
As for B17, in test [9], the Kd is 18.6 nM.

B18: AI Design 9 (multi-step AI designed trastuzumab variant, native HCDR1 and HCDR2) (Fab, V domains shown)
VH: EVQLVESGGGLVQPGGSLRLSCAASGFNIKDTYIHWVRQAPGKGLEWVARIYPTNGYTRYADSVKGRFTISADTSKNTAYLQMNSLRAEDTAVYYCARYYGSSSYYFAYWGQGTLVTVSS
VL: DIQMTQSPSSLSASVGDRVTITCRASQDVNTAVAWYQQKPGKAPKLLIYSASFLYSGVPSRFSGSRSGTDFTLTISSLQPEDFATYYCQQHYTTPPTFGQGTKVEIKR
notes: Fab format; also called GFNIKDTY / IYPTNGYT / ARYYGSSSYYFAY
In test [9], B18 yielded a Kd of 60.6 nM.

B19: AI Design 5 (multi-step AI designed trastuzumab HCDR1/2/3 variant) (Fab, V domains shown)
VH: EVQLVESGGGLVQPGGSLRLSCAASGFNFKDTYIHWVRQAPGKGLEWVARIYPANGYTRYADSVKGRFTISADTSKNTAYLQMNSLRAEDTAVYYCASDGGSYSYAFDYWGQGTLVTVSS
VL: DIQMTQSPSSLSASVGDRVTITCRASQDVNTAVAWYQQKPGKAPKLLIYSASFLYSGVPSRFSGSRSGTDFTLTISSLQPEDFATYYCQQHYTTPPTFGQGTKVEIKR
notes: Fab format; also called GFNFKDTY / IYPANGYT / ASDGGSYSYAFDY
For the molecule B19, binding in test [9] was put at a Kd of 642 nM.

B20: AI Design 4 (multi-step AI designed trastuzumab HCDR1/2/3 variant) (Fab, V domains shown)
VH: EVQLVESGGGLVQPGGSLRLSCAASGFNIKDTWIHWVRQAPGKGLEWVARIDPANGYTRYADSVKGRFTISADTSKNTAYLQMNSLRAEDTAVYYCARVGGRGYYYYDYWGQGTLVTVSS
VL: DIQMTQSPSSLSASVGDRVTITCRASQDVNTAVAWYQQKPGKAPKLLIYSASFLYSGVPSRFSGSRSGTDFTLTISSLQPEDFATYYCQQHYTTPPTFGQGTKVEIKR
notes: Fab format; also called GFNIKDTW / IDPANGYT / ARVGGRGYYYYDY
In [9], B20 showed a Kd of 394 nM.

B21: Trast_Her2_50 (Fab, V domains shown)
VH: EVQLVESGGGLVQPGGSLRLSCAASGFNIKDTYIHWVRQAPGKGLEWVARIYPTNGYTRYADSVKGRFTISADTSKNTAYLQMNSLRAEDTAVYYCAKGWGVEPREFAYWGQGTLVTVSS
VL: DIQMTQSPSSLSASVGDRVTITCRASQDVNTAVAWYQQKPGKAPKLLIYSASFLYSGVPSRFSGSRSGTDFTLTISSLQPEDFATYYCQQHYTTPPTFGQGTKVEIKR
notes: also called HCDR3 AKGWGVEPREFAY
As for B21, in [16], the Kd is 2.71 nM, the koff came to 4.19e-05 s⁻¹ and the kon amounted to 15500 M⁻¹ s⁻¹.

B22: De novo trastuzumab HCDR3 variant ARYAGVERPGSFAY (Fab, V domains shown)
VH: EVQLVESGGGLVQPGGSLRLSCAASGFNIKDTYIHWVRQAPGKGLEWVARIYPTNGYTRYADSVKGRFTISADTSKNTAYLQMNSLRAEDTAVYYCARYAGVERPGSFAYWGQGTLVTVSS
VL: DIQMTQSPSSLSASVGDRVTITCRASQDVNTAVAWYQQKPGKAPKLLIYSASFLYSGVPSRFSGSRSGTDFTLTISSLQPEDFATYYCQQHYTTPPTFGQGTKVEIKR
notes: Fab format
Turning to B22, the “log10(KD)” value in test [3] was -6.24 log10(M).
